The target of this data set is T1, C-terminal recombinant protein of F3374 (437-730 amino acids, His-tag).
T1 chain: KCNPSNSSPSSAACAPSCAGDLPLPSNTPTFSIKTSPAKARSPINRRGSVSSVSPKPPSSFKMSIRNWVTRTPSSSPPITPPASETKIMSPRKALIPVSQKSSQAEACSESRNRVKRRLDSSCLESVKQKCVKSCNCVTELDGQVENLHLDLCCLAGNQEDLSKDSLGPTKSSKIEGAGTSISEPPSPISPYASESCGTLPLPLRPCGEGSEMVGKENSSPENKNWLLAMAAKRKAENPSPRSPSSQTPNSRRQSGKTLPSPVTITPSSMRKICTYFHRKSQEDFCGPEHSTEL

B1: full-length recombinant protein of AURKB (Upstate) (protein)
chain: MAQKENSYPWPYGRQTAPSGLSTLPQRVLRKEPVTPSALVLMSRSNVQPTAAPGQKVMENSSGTPDILTRHFTIDDFEIGRPLGKGKFGNVYLAREKKSHFIVALKVLFKSQIEKEGVEHQLRREIEIQAHLHHPNILRLYNYFYDRRRIYLILEYAPRGELYKELQKSCTFDEQRTATIMEELADALMYCHGKKVIHRDIKPENLLLGLKGELKIADFGWSVHAPSLRRKTMCGTLDYLPPEMIEGRMHNEKVDLWCIGVLCYELLVGNPPFESASHNETYRRIVKVDLKFPASVPMGAQDLISKLLRHNPSERLPLAQVSAHPWVRANSRRVLPPSALQSVA
Consider B1, for which the “in vitro kinase assay (32P, autoradiography)” value is “found phosphorylation of the F3374 protein by AURKB in vitro”.

The values above are taken from patent publication US20110135647.
